The chains are these.
B1: Formin-binding protein 4, residues 593 to 636; numbered along this chain, Q8N3X1 (parent)
chain: EINATPKGWSCHWDRDHRRYFYVNEQSGESQWEFPDGEEEEEES

The record followed here is the Human Domainome abundance scans (Beltran et al. 2025).

± gives the uncertainty stated by the source.

The series covers variants of B1. Nature of the series: abundance fitness (aPCA) (normalised: wild type 0, dead -1); higher = more abundant; growth selection in yeast, the domain comes from the species named. Conditions: Homo sapiens.
With EINATPKGWSCHWDRDHRRYFYVVEQSGESQWEFPDGEEEEEES [N24V], the abundance fitness was -1.08 ± 0.072. With EINATPKGWSCHWDRDHRRYFYVYEQSGESQWEFPDGEEEEEES [N24Y] the figure was -0.998 ± 0.16.

Consider EINATPKGWSCHWDRDHRRYFYVSEQSGESQWEFPDGEEEEEES [N24S], for which the abundance fitness is -0.315 ± 0.079. Turning to EINATPKGWSCHWDRDHRRYFYVREQSGESQWEFPDGEEEEEES [N24R], the abundance fitness is -0.359 ± 0.058. The result for EINATPKGWSCHWDRDHRRYFYVMEQSGESQWEFPDGEEEEEES [N24M] reads -0.984 ± 0.099. The result for EINATPKGWSCHWDRDHRRYFYVWEQSGESQWEFPDGEEEEEES [N24W] reads -0.726 ± 0.082. The result for EINATPKGWSCHWDRDHRRYFYVQEQSGESQWEFPDGEEEEEES [N24Q] reads -0.41 ± 0.084; that for EINATPKGWSCHWDRDHRRYFYVTEQSGESQWEFPDGEEEEEES [N24T], -0.63 ± 0.14; that for EINATPKGWSCHWDRDHRRYFYVNPQSGESQWEFPDGEEEEEES [E25P], -0.449 ± 0.14. Regarding EINATPKGWSCHWDRDHRRYFYVNVQSGESQWEFPDGEEEEEES [E25V], the abundance fitness was -0.17 ± 0.094. In the case of EINATPKGWSCHWDRDHRRYFYVNMQSGESQWEFPDGEEEEEES [E25M], the abundance fitness is -0.253 ± 0.12. With EINATPKGWSCHWDRDHRRYFYVNDQSGESQWEFPDGEEEEEES [E25D] the figure was 0.144 ± 0.13; with EINATPKGWSCHWDRDHRRYFYVNGQSGESQWEFPDGEEEEEES [E25G], -0.316 ± 0.073. With EINATPKGWSCHWDRDHRRYFYVNQQSGESQWEFPDGEEEEEES [E25Q] the figure was 0.006 ± 0.14; with EINATPKGWSCHWDRDHRRYFYVNTQSGESQWEFPDGEEEEEES [E25T], -0.119 ± 0.13; with EINATPKGWSCHWDRDHRRYFYVNRQSGESQWEFPDGEEEEEES [E25R], -0.175 ± 0.067. Take EINATPKGWSCHWDRDHRRYFYVNCQSGESQWEFPDGEEEEEES [E25C]: the abundance fitness was -0.355 ± 0.29. With EINATPKGWSCHWDRDHRRYFYVNKQSGESQWEFPDGEEEEEES [E25K] the figure was 0.477 ± 0.27. For EINATPKGWSCHWDRDHRRYFYVNWQSGESQWEFPDGEEEEEES [E25W], the abundance fitness is -0.648 ± 0.095. Consider EINATPKGWSCHWDRDHRRYFYVNAQSGESQWEFPDGEEEEEES [E25A], for which the abundance fitness was -0.179 ± 0.078. As for EINATPKGWSCHWDRDHRRYFYVNSQSGESQWEFPDGEEEEEES [E25S], the abundance fitness is -0.365 ± 0.14. As for EINATPKGWSCHWDRDHRRYFYVNHQSGESQWEFPDGEEEEEES [E25H], the abundance fitness was -0.251 ± 0.12. The result for EINATPKGWSCHWDRDHRRYFYVNEQSGEHQWEFPDGEEEEEES [S30H] reads -0.354 ± 0.17; that for EINATPKGWSCHWDRDHRRYFYVNEQSGEVQWEFPDGEEEEEES [S30V], 0.094 ± 0.072; that for EINATPKGWSCHWDRDHRRYFYVNEQSGEIQWEFPDGEEEEEES [S30I], 0.082 ± 0.13. The result for EINATPKGWSCHWDRDHRRYFYVNEQSGETQWEFPDGEEEEEES [S30T] reads 0.067 ± 0.083; that for EINATPKGWSCHWDRDHRRYFYVNEQSGEQQWEFPDGEEEEEES [S30Q], 0.15 ± 0.12; that for EINATPKGWSCHWDRDHRRYFYVNEQSGEPQWEFPDGEEEEEES [S30P], -0.174 ± 0.083.

Take EINATPKGWSCHWDRDHRRYFYVNEQSGEAQWEFPDGEEEEEES [S30A]: the abundance fitness came out at 0.014 ± 0.071. With EINATPKGWSCHWDRDHRRYFYVNEQSGEWQWEFPDGEEEEEES [S30W] the figure was 0.02 ± 0.11; with EINATPKGWSCHWDRDHRRYFYVNEQSGEEQWEFPDGEEEEEES [S30E], -0.04 ± 0.084; with EINATPKGWSCHWDRDHRRYFYVNEQSGEKQWEFPDGEEEEEES [S30K], 0.274 ± 0.16. As to EINATPKGWSCHWDRDHRRYFYVNEQSGERQWEFPDGEEEEEES [S30R], the abundance fitness worked out at 0.27 ± 0.081.

Regarding EINATPKGWSCHWDRDHRRYFYVNEQSGELQWEFPDGEEEEEES [S30L], the abundance fitness was -0.03 ± 0.1. With EINATPKGWSCHWDRDHRRYFYVNEQSGEGQWEFPDGEEEEEES [S30G] the figure was -0.023 ± 0.078; with EINATPKGWSCHWDRDHRRYFYVNEQSGEFQWEFPDGEEEEEES [S30F], -0.066 ± 0.36; with EINATPKGWSCHWDRDHRRYFYVNEQSGEMQWEFPDGEEEEEES [S30M], 0.04 ± 0.17. Regarding EINATPKGWSCHWDRDHRRYFYVNEQSGPSQWEFPDGEEEEEES [E29P], the abundance fitness was -0.883 ± 0.12.

Consider EINATPKGWSCHWDRDHRRYFYVNEQSGHSQWEFPDGEEEEEES [E29H], for which the abundance fitness is -0.016 ± 0.094. With EINATPKGWSCHWDRDHRRYFYVNEQSGISQWEFPDGEEEEEES [E29I], the abundance fitness was -0.062 ± 0.13. Consider EINATPKGWSCHWDRDHRRYFYVNEQSGQSQWEFPDGEEEEEES [E29Q], for which the abundance fitness was -0.027 ± 0.079. As for EINATPKGWSCHWDRDHRRYFYVNEQSGTSQWEFPDGEEEEEES [E29T], the abundance fitness is -0.269 ± 0.3. The result for EINATPKGWSCHWDRDHRRYFYVNEQSGASQWEFPDGEEEEEES [E29A] reads -0.052 ± 0.081. Turning to EINATPKGWSCHWDRDHRRYFYVNEQSGLSQWEFPDGEEEEEES [E29L], the abundance fitness is -0.129 ± 0.094.

Turning to EINATPKGWSCHWDRDHRRYFYVNEQSGDSQWEFPDGEEEEEES [E29D], the abundance fitness is -0.388 ± 0.26.

Consider EINATPKGWSCHWDRDHRRYFYVNEQSGMSQWEFPDGEEEEEES [E29M], for which the abundance fitness is -0.058 ± 0.096. Consider EINATPKGWSCHWDRDHRRYFYVNEQSGWSQWEFPDGEEEEEES [E29W], for which the abundance fitness was -0.559 ± 0.093. For EINATPKGWSCHWDRDHRRYFYVNEQSGCSQWEFPDGEEEEEES [E29C], the abundance fitness was -0.575 ± 0.18. With EINATPKGWSCHWDRDHRRYFYVNEQSGNSQWEFPDGEEEEEES [E29N] the figure was -0.421 ± 0.31; with EINATPKGWSCHWDRDHRRYFYVNEQSGVSQWEFPDGEEEEEES [E29V], -0.126 ± 0.079; with EINATPKGWSCHWDRDHRRYFYVNEQSGGSQWEFPDGEEEEEES [E29G], -0.253 ± 0.07. The result for EINATPKGWSCHWDRDHRRYFYVNEQDGESQWEFPDGEEEEEES [S27D] reads -0.551 ± 0.14; that for EINATPKGWSCHWDRDHRRYFYVNEQTGESQWEFPDGEEEEEES [S27T], 0.022 ± 0.072; that for EINATPKGWSCHWDRDHRRYFYVNEQRGESQWEFPDGEEEEEES [S27R], -0.422 ± 0.09.

As for EINATPKGWSCHWDRDHRRYFYVNEQPGESQWEFPDGEEEEEES [S27P], the abundance fitness is -1.02 ± 0.19. Take EINATPKGWSCHWDRDHRRYFYVNEQGGESQWEFPDGEEEEEES [S27G]: the abundance fitness is -0.458 ± 0.11. Regarding EINATPKGWSCHWDRDHRRYFYVNEQWGESQWEFPDGEEEEEES [S27W], the abundance fitness was -1.52 ± 0.45. On to EINATPKGWSCHWDRDHRRYFYVNEQQGESQWEFPDGEEEEEES [S27Q], for which the abundance fitness was -0.613 ± 0.12.
